In the supplement of paper PMC6757056:
± gives the standard deviation of the averaged measurements.

B1: library; a variant is named by its letters at N, in order (parent)
chain: GCUGUCACCGAGAAACUGUGAAGUAUAUCUUAAACCUGGGCACUUAAAAGAUAUAUGGAGUUAGUAGUGCAACCUGCUCGGUCUGAUGAGUCCNNNNNNGGACGAAACAGC

Assays:
cyclic di-GMP [1] = variants of: B1; experiment: normalized RNA/DNA level without ligand (relative to sTRSVctl = 100) (log10 (% of sTRSVctl)); HEK293T; ligand: cyclic di-GMP (c-di-GMP-II aptamer); higher = less ribozyme self-cleavage, higher mRNA level; details: reporter: mCherry (pCS4076), ligand present: no
Outline: (§1)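 Library plasmids carrying ribozyme switches linked to mCherry, or to eGFP in some ligand experiments, were transfected into HEK293T at 4 µg per 6-well well, with any ligand added 1 h earlier. Seventy-two hours on, total RNA was extracted with EDTA and reverse-transcribed, amplified, barcoded and sequenced. RNA level was RNA over DNA reads normalized to a spiked-in non-cleaving sequence or to the top sequences, then scaled and log-transformed. The top set was 25 sequences, the transform was ×100 and log10, and sequences needed ≥100 DNA reads.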

cyclic di-GMP [2] = variants of: B1; experiment: normalized RNA/DNA level with ligand (relative to sTRSVctl = 100) (log10 (% of sTRSVctl)); HEK293T; ligand: cyclic di-GMP (c-di-GMP-II aptamer); ligand concentration (+) RNA-Seq: 1 mM; higher = less ribozyme self-cleavage, higher mRNA level; details: reporter: mCherry (pCS4076), ligand present: yes
Outline: as §1

Variant | normalized RNA/DNA level without ligand (log10) (cyclic di-GMP [1]) | normalized RNA/DNA level with ligand (log10) (cyclic di-GMP [2])
GCUGUCACCGAGAAACUGUGAAGUAUAUCUUAAACCUGGGCACUUAAAAGAUAUAUGGAGUUAGUAGUGCAACCUGCUCGGUCUGAUGAGUCCCGCGAGGGACGAAACAGC | 1.743 ± 0.0083 | 1.828 ± 0.012
GCUGUCACCGAGAAACUGUGAAGUAUAUCUUAAACCUGGGCACUUAAAAGAUAUAUGGAGUUAGUAGUGCAACCUGCUCGGUCUGAUGAGUCCCGCGAUGGACGAAACAGC | 1.58 ± 0.05 | 1.79 ± 0.14
GCUGUCACCGAGAAACUGUGAAGUAUAUCUUAAACCUGGGCACUUAAAAGAUAUAUGGAGUUAGUAGUGCAACCUGCUCGGUCUGAUGAGUCCUGCGCCGGACGAAACAGC | 1.79 ± 0.046 | 1.92 ± 0.094
GCUGUCACCGAGAAACUGUGAAGUAUAUCUUAAACCUGGGCACUUAAAAGAUAUAUGGAGUUAGUAGUGCAACCUGCUCGGUCUGAUGAGUCCUGCGCUGGACGAAACAGC | 1.72 ± 0.032 | 1.89 ± 0.11
GCUGUCACCGAGAAACUGUGAAGUAUAUCUUAAACCUGGGCACUUAAAAGAUAUAUGGAGUUAGUAGUGCAACCUGCUCGGUCUGAUGAGUCCUGCGCAGGACGAAACAGC | 1.711 ± 0.014 | 1.86 ± 0.061
GCUGUCACCGAGAAACUGUGAAGUAUAUCUUAAACCUGGGCACUUAAAAGAUAUAUGGAGUUAGUAGUGCAACCUGCUCGGUCUGAUGAGUCCUGCGCGGGACGAAACAGC | 1.821 ± 0.0063 | 1.92 ± 0.085
GCUGUCACCGAGAAACUGUGAAGUAUAUCUUAAACCUGGGCACUUAAAAGAUAUAUGGAGUUAGUAGUGCAACCUGCUCGGUCUGAUGAGUCCGGCGCCGGACGAAACAGC | 1.79 ± 0.041 | 1.84 ± 0.083
GCUGUCACCGAGAAACUGUGAAGUAUAUCUUAAACCUGGGCACUUAAAAGAUAUAUGGAGUUAGUAGUGCAACCUGCUCGGUCUGAUGAGUCCGGCGCAGGACGAAACAGC | 1.86 ± 0.064 | 1.92 ± 0.023
GCUGUCACCGAGAAACUGUGAAGUAUAUCUUAAACCUGGGCACUUAAAAGAUAUAUGGAGUUAGUAGUGCAACCUGCUCGGUCUGAUGAGUCCGGCGCGGGACGAAACAGC | 1.72 ± 0.034 | 1.83 ± 0.19
GCUGUCACCGAGAAACUGUGAAGUAUAUCUUAAACCUGGGCACUUAAAAGAUAUAUGGAGUUAGUAGUGCAACCUGCUCGGUCUGAUGAGUCCCGCGGAGGACGAAACAGC | 1.446 ± 0.0059 | 1.62 ± 0.089
GCUGUCACCGAGAAACUGUGAAGUAUAUCUUAAACCUGGGCACUUAAAAGAUAUAUGGAGUUAGUAGUGCAACCUGCUCGGUCUGAUGAGUCCCGCGGCGGACGAAACAGC | 1.74 ± 0.03 | 1.87 ± 0.11
GCUGUCACCGAGAAACUGUGAAGUAUAUCUUAAACCUGGGCACUUAAAAGAUAUAUGGAGUUAGUAGUGCAACCUGCUCGGUCUGAUGAGUCCAGCGCAGGACGAAACAGC | 1.661 ± 0.005 | 1.78 ± 0.12
GCUGUCACCGAGAAACUGUGAAGUAUAUCUUAAACCUGGGCACUUAAAAGAUAUAUGGAGUUAGUAGUGCAACCUGCUCGGUCUGAUGAGUCCAGCGCUGGACGAAACAGC | 1.7 ± 0.044 | 1.82 ± 0.17
GCUGUCACCGAGAAACUGUGAAGUAUAUCUUAAACCUGGGCACUUAAAAGAUAUAUGGAGUUAGUAGUGCAACCUGCUCGGUCUGAUGAGUCCAGCGCGGGACGAAACAGC | 1.708 ± 0.0043 | 1.83 ± 0.12
GCUGUCACCGAGAAACUGUGAAGUAUAUCUUAAACCUGGGCACUUAAAAGAUAUAUGGAGUUAGUAGUGCAACCUGCUCGGUCUGAUGAGUCCAGCGCCGGACGAAACAGC | 1.7734 ± 0.0015 | 1.91 ± 0.082
GCUGUCACCGAGAAACUGUGAAGUAUAUCUUAAACCUGGGCACUUAAAAGAUAUAUGGAGUUAGUAGUGCAACCUGCUCGGUCUGAUGAGUCCGGCGGCGGACGAAACAGC | 1.71 ± 0.021 | 1.89 ± 0.13
GCUGUCACCGAGAAACUGUGAAGUAUAUCUUAAACCUGGGCACUUAAAAGAUAUAUGGAGUUAGUAGUGCAACCUGCUCGGUCUGAUGAGUCCGGCGAUGGACGAAACAGC | 1.586 ± 0.014 | 1.72 ± 0.11
GCUGUCACCGAGAAACUGUGAAGUAUAUCUUAAACCUGGGCACUUAAAAGAUAUAUGGAGUUAGUAGUGCAACCUGCUCGGUCUGAUGAGUCCUGCGAUGGACGAAACAGC | 1.605 ± 0.0035 | 1.8 ± 0.091
GCUGUCACCGAGAAACUGUGAAGUAUAUCUUAAACCUGGGCACUUAAAAGAUAUAUGGAGUUAGUAGUGCAACCUGCUCGGUCUGAUGAGUCCCGCGCGGGACGAAACAGC | 1.83 ± 0.025 | 1.92 ± 0.038
GCUGUCACCGAGAAACUGUGAAGUAUAUCUUAAACCUGGGCACUUAAAAGAUAUAUGGAGUUAGUAGUGCAACCUGCUCGGUCUGAUGAGUCCCGCGCAGGACGAAACAGC | 1.65 ± 0.046 | 1.75 ± 0.13
GCUGUCACCGAGAAACUGUGAAGUAUAUCUUAAACCUGGGCACUUAAAAGAUAUAUGGAGUUAGUAGUGCAACCUGCUCGGUCUGAUGAGUCCCGCGCUGGACGAAACAGC | 1.702 ± 0.016 | 1.83 ± 0.11
GCUGUCACCGAGAAACUGUGAAGUAUAUCUUAAACCUGGGCACUUAAAAGAUAUAUGGAGUUAGUAGUGCAACCUGCUCGGUCUGAUGAGUCCCGCGCCGGACGAAACAGC | 1.75 ± 0.025 | 1.88 ± 0.14
GCUGUCACCGAGAAACUGUGAAGUAUAUCUUAAACCUGGGCACUUAAAAGAUAUAUGGAGUUAGUAGUGCAACCUGCUCGGUCUGAUGAGUCCAGCGGAGGACGAAACAGC | 1.52 ± 0.056 | 1.67 ± 0.086
GCUGUCACCGAGAAACUGUGAAGUAUAUCUUAAACCUGGGCACUUAAAAGAUAUAUGGAGUUAGUAGUGCAACCUGCUCGGUCUGAUGAGUCCAGCGAUGGACGAAACAGC | 1.71 ± 0.015 | 1.87 ± 0.1
GCUGUCACCGAGAAACUGUGAAGUAUAUCUUAAACCUGGGCACUUAAAAGAUAUAUGGAGUUAGUAGUGCAACCUGCUCGGUCUGAUGAGUCCAGCGAGGGACGAAACAGC | 1.57 ± 0.13 | 1.74 ± 0.042
GCUGUCACCGAGAAACUGUGAAGUAUAUCUUAAACCUGGGCACUUAAAAGAUAUAUGGAGUUAGUAGUGCAACCUGCUCGGUCUGAUGAGUCCUGCGGAGGACGAAACAGC | 1.559 ± 0.0066 | 1.78 ± 0.12
